One experiment deals with T1, mouse PD-1 (mouse, UniProt Q02242 25-288).
T1 construct: whole, on cells; also called CHO/mouse PD-1
T1 sequence (looked up): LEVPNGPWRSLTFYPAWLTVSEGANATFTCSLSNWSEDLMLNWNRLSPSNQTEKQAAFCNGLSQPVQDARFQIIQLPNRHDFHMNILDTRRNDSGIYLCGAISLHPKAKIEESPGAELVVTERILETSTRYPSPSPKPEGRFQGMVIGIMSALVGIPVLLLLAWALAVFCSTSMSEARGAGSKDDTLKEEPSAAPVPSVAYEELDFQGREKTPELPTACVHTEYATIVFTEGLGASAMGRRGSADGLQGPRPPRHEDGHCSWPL
The experiment is described as follows: FACS on CHO/mouse PD-1 cells.

The target of experiment [1] is T2, human PD1 (human, UniProt Q15116 25-288).
T2 construct: whole, on cells; also called hPD1; CHO-hPD1
T2 sequence (Q15116 25-288): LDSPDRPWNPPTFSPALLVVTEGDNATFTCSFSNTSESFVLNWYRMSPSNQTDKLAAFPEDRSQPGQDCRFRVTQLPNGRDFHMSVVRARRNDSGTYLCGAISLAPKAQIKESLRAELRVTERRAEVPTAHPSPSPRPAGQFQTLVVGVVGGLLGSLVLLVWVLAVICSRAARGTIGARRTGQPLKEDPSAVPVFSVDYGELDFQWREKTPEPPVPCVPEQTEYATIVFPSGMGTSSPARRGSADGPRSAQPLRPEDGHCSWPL
Kind of experiment: FACS on CHO/human PD-1 cells.

Experiment [2] addresses T2, human PD1. The experiment is described as follows: cell-based or functional assay.
For a further experiment, the target named is T3, cyno PD-1 (cyno, UniProt B0LAJ3 25-288).
T3 construct: also called CHO/cyno PD-1; monkey PD-1
T3 sequence (B0LAJ3 entry or part of it limits assumed, form in doubt): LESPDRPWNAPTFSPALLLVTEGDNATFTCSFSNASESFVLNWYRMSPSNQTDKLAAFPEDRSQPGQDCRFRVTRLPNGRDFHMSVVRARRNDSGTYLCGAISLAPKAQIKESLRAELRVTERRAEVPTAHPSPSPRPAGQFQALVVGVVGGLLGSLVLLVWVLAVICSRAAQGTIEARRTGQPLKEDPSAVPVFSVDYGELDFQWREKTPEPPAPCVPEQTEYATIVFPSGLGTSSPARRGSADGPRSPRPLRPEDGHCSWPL
The experiment is described as follows: FACS on CHO/cyno PD-1 cells.

Experiment [3] concerns the target T2, human PD1. Kind of experiment: FACS: blocking of human PD-L1-mFC (1 µg/mL) binding to CHO/human PD-1 cells.
The target of experiment [4] is T2, human PD1. The experiment is described as follows: FACS binding on CHO/human PD-1 cells (Example 12).
The target of a further experiment is T4, human IL10R1 (human, UniProt Q13651 22-578).
T4 construct: whole, on cells; also called CHO/human IL10R1
T4 sequence (looked up): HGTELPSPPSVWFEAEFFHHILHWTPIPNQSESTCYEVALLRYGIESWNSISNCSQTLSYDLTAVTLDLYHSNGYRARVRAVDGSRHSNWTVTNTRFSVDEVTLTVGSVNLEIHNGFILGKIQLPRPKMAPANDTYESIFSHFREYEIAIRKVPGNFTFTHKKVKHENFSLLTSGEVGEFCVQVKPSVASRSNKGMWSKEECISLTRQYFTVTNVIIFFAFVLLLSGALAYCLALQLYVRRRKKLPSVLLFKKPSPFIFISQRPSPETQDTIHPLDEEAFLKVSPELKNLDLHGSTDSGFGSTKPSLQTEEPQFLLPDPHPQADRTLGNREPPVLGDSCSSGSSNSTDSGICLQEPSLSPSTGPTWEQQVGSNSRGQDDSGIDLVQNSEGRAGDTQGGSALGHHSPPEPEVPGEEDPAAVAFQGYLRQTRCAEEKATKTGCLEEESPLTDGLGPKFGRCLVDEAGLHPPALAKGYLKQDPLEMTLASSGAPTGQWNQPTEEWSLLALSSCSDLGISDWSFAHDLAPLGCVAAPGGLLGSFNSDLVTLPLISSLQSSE
The experiment is described as follows: FACS on CHO/human IL10R1 cells.

Another experiment concerns the target T5, mouse IL10R1 (mouse, UniProt Q61727 17-575).
T5 construct: whole, on cells; also called CHO/mouse IL10R1
T5 sequence (looked up): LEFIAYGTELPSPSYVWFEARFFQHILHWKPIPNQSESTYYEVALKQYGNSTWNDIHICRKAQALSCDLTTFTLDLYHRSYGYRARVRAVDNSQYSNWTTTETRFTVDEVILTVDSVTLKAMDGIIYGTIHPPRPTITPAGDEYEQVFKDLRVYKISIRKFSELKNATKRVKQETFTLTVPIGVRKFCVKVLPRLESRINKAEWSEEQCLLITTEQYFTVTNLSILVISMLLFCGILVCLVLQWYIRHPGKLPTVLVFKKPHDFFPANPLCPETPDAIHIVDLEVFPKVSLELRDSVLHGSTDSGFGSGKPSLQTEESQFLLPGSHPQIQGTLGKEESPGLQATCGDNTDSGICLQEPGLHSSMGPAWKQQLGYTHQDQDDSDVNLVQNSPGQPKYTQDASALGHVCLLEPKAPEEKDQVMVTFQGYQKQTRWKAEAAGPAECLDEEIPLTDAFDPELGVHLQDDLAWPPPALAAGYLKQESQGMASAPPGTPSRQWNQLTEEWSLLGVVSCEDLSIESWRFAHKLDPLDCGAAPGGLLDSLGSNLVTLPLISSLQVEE
The experiment is described as follows: FACS on CHO/mouse IL10R1 cells.

The target of another experiment is T6, cyno IL10R1 (cyno, UniProt A0A2K5WJ66 22-576).
T6 construct: whole, on cells; also called CHO/cyno IL10R1; monkey IL10R1
T6 sequence: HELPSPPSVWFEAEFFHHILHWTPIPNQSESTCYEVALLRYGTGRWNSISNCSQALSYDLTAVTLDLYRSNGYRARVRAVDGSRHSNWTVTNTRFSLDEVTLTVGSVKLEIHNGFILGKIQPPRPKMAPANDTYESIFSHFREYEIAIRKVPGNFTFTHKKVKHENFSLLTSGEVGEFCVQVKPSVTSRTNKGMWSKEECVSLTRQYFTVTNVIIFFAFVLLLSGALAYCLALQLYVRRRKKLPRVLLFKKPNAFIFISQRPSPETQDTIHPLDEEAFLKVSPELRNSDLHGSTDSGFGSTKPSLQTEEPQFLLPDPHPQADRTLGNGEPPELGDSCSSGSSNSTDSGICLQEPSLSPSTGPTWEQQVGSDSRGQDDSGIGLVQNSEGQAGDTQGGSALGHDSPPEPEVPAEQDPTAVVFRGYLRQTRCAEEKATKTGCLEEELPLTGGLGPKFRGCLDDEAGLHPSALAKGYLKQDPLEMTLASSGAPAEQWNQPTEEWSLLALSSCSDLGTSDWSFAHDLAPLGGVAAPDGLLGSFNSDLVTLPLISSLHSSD
Kind of experiment: FACS on CHO/cyno IL10R1 cells.

B1: anti-PD1 antibody R1152 (antibody, human IgG1, kappa, L234A L235A, V domains shown)
VH: QVQLVQSGAEVKKPGASVKVSCKASGYTFTTYYMYWVRQAPGQGLEWMGGINPSNGGTNYAQKFQGRATMTVDTSTSTAYMELSSLRSEDTAVYYCTRRDSNYDGGFDYWGQGTTVTVSS
VL: DIQMTQSPSSLSASVGDRVTITCRASKSVSTSGYSYMHWYQQKPGKAPKLLIYLAYHLESGVPSRFSGSGSGTDFTLTISSLQPEDFATYYCQHSWELPITFGQGTKLEIKR
notes: also called PD1 monoclonal antibody R1152; PD-1 parent antibody
For the molecule B1, in the experiment with mouse PD-1, the binding result is “no binding”. Moreover, the EC50 with human PD1 [1] amounted to 5.47 nM; with cyno PD-1 it was 3.47 nM; with human PD1 [4] it was 7.75 nM. The “EC50 of luciferase reporter gene activity (CHO-OKT3-hPD-L1 cells + Jurkat-NFAT-luc-hPD-1 cells)” value with human PD1 [2] was determined as 6.84 nM. Besides, the IC50 in the experiment with human PD1 [3] is 8.34 nM.

B2: R0862, hIgG1 antibody containing an L234A/L235A mutation (antibody, V domains shown)
VH: QVQLVESGGGVVQPGRSLRLSCAASGFTFSSYGMHWVRQAPGKGLEWVAAIWYDGSNKYYTDSVKGRFTISRDNSKNTLYLQMNSLRAEDTAVYYCARDLRGVMYFDLWGRGTLVTVSS
VL: EIVLTQSPATLSLSPGERATLSCRASQSVSRYLAWYQQKPGQAPRLLIYDASNRATGIPARFSGSGSGTDFTLTISSLEPEDFAVYYCQLRNNWPLTFGGGTKVEIKR
notes: Isotype control; also called ISO-hIgG1.8; copies: 2 + 2
With B2, the binding result with mouse PD-1, with human PD1 [1], with human IL10R1, with mouse IL10R1 and in the experiment with cyno IL10R1 was “no binding” each time.

These data come from patent EP4786499A1 (Guangdong Fapon Biopharma Inc., dated 2026).
